Patent publication US5716934A, “Eck receptor ligands” (Amgen Inc., priority 1995, dated 1998)

How the values were obtained:
[1] = tested on: immobilized soluble extracellular domain of eck; test: Stability of eck binding activity of formulated EBP (BIAcore); type: physicochemical, human
Method: FIG. 7. Binding of CHO-derived EBP in various detergent formulations to immobilized eck receptor as measured by BIAcore. Purified EBP was diluted to 100 μg/ml in PBS in the presence or absence of detergent and incubated for 2 hrs. at 3° C. Protein samples were diluted to the concentrations indicated in the figure and tested for eck receptor binding.
Measuring the ability of EBP to bind to the immobilized soluble extracellular domain of eck using BIAcore, it was determined that dilute solutions of purified EBP rapidly lost the ability to bind to the eck receptor unless formulated with a protective agent such as a detergent. Recombinant CHO EBP diluted into PBS to 100 μg/ml and incubated for 2 hours at […] lost approximately 50% of its eck binding activity. […] (see FIG. 7).

hepatocytes = test: 3H-thymidine incorporation in primary hepatocyte cultures; type: cell-based; settings: EBP at 20 ng/ml, aFGF at 20 ng/ml, 24 to 48 hours, serum-free
Method: Hepatocytes were isolated by the in situ two step collagenase perfusion technique described by Seglen (Methods in Toxicol., Vol. 1A, 231-243 (1993). Briefly, the perfused livers were dispersed in ice cold Hank's buffer, filtered through a nylon mesh, and hepatocytes separated from nonparenchymal cells by repeated centrifugation at 50×g. The hepatocytes were determined to be greater than 85% viable by trypan blue exclusion. The hepatocytes were cultured on plates coated with rat tail collagen and plated in Williams E containing 5% FCS, 10^-7 M insulin, 10^-8 M dexamethason, glutamine, penicillin and streptomycin.
Cells were allowed to attach for 3-4 hours in serum containing media and then transferred to serum-free media. The appropriate concentrations of EBP or other growth factors were added and the cells were incubated for 24 to 48 hours in the presence of ^3 H-thymidine. After incubation, the extent of ^3 H-thymidine incorporation into cells was determined. The growth factors tested were keratinocyte growth factor (KGF) at 10 ng/ml, acidic FGF (aFGF) at 20 ng/ml, and EBP at 20 ng/ml. […] In this particular experiment, the serum free value was unusually high (about 3-fold).

[2] = tested on: extracellular domain of the kit receptor; test: BIAcore binding to surfaces activated with kit receptor extracellular domain
Description: SDS-PAGE analysis of the fractions from this column confirmed that EBP was co-eluted with the receptor binding activity.

[3] = tested on: bone marrow suspensions from BDF mice; test: Murine bone marrow colony formation (hematopoiesis); type: cell-based, mouse
Method: Unfractionated bone marrow suspensions from BDF mice were plated into serum free culture medium (Iscove's modified Dulbecco's medium) in 0.3% agarose and incubated at 37° C., 5% CO2 for ten days at a cell concentration of 1×10^5 /ml in 96 well plates. Total volume per […] was 50 μl . EBP and other growth factors were added in the amounts indicated and colonies were scored at the tenth day of incubation.

EGF receptor = EGF receptor phosphorylation in LIM 2405 cells treated with EBP; type: cell-based, human
colon crypt cells = test: Colon crypt assay; type: cell-based, mouse; settings: bFGF 60 ng/ml, EBP 500 ng/ml
Method: Colons from five (BDF) mice were removed and crypts isolated using a non enzymatic (EDTA) extraction method. Briefly, colons are washed and allowed to sit for 20 min. in a solution of PBS containing 0.04% sodium hypochlorite. Crypts are isolated by incubating the tissue for 1 hour at 37° C. in a solution of PBS containing 3 mM EDTA and 0.5 mM DTT. Crypts are then subjected to pancreatin digestion (0.2% in PBS) for 90 min. at 37° C. in order to obtain a single cell suspension. Cells are washed in PBS, counted and viability determined by trypan blue exclusion (85% in this experiment). Cells are then plated in a top layer of 0.37% Sigma low melt agar onto a bottom layer of 0.5% agar. The RPMI media used in the agar includes the presence of 1×ITS (insulin, transferrin, and selenium, Gibco). Incubations were done in the presence of 1% fetal calf serum (FCS) and the indicated growth factors at the following concentration: TGFα, 50 ng/ml; bFGF, 60 ng/ml; EBP, 500 ng/ml. Control incubations lacked growth factors and/or FCS. Each of the various culture conditions was performed in triplicate and scored every several days.

B1: EBP: eck receptor binding protein, polypeptide ligand of the eck receptor (B61 gene product, SEQ. ID. NO. 1); source form not specified at place (protein)
chain: MEFLWAPLLGLCCSLAAADRHTVFWNSSNPKFRNEDYTIHVQLNDYVDIICPHYEDHSVADAAMEQYILYLVEHEEYQLCQPQSKDQVRWQCNRPSAKHGPEKLSEKFQRFTPFTLGKEFKEGHSYYYISKPIHQHEDRCLRLKVTVSGKITHSPQAHVNPQEKRLAADDPEVRVLHSIGHSAAPRLFPLAWTVLLLPLLLLQTP
loss of eck binding activity when formulated in detergent ([1]; 1 mM CHAPS, 0.1% NP-40, 0.1% tween 20, 0.1% triton-X 100, or 0.1% tween 80): loss of activity can be avoided | stability of eck binding activity ([1]; 2-5 mg/ml in detergent solutions, 3° C.): stable for at least one week | stability of eck binding activity ([1]; 10-500 μg/ml, stored at -20° C. or multiple freeze thaw cycles): will lose activity | loss of eck binding activity when incubated with protein carriers ([1]; diluted EBP with carriers such as fetal calf serum): can also be avoided | amount of 3H-thymidine incorporation stimulated (hepatocytes): about the same as that induced by aFGF | binding to BIAcore surfaces activated with the extracellular domain of the kit receptor [2]: did not bind | stimulation of CFU-M or BFU-E/CFU-E ([3]; EBP alone): no stimulation | potentiation of murine IL-3 dependent CFU-C formation compared to IL-3 alone ([3]; EBP at 1 μg/ml with murine IL-3, colonies scored day 10): about 2 fold | phosphorylation of the EGF receptor (EGF receptor): does not result in spurious phosphorylation | colon crypt cell clusters, overall observation (colon crypt cells): occasional large clusters
